Paper PMC11952658
Blank lines part the entries; values can stand above or below the substance they belong to.

Experiments:
LIG3α K421A = experiment: single-molecule (SMADNE, optical tweezers); details: nicks with 3'OH and 5'P; 20 mM HEPES pH 7.5, 150 mM NaCl, 1 mM DTT, 5% glycerol, 0.5 mg/ml BSA, 1 mM trolox, 25 °C; nuclear extract diluted 1:10; 10 pN (λ DNA) or 4-5 pN (NCP)
LIG3α ΔZnF, P49916-3 = system: T1, LIG3α ΔZnF, P49916-3; experiment: single-molecule (SMADNE, optical tweezers); details: nicks with 3'OH and 5'P; 20 mM HEPES pH 7.5, 150 mM NaCl, 1 mM DTT, 5% glycerol, 0.5 mg/ml BSA, 1 mM trolox, 25 °C; nuclear extract diluted 1:10; 10 pN (λ DNA) or 4-5 pN (NCP)
T1 sequence: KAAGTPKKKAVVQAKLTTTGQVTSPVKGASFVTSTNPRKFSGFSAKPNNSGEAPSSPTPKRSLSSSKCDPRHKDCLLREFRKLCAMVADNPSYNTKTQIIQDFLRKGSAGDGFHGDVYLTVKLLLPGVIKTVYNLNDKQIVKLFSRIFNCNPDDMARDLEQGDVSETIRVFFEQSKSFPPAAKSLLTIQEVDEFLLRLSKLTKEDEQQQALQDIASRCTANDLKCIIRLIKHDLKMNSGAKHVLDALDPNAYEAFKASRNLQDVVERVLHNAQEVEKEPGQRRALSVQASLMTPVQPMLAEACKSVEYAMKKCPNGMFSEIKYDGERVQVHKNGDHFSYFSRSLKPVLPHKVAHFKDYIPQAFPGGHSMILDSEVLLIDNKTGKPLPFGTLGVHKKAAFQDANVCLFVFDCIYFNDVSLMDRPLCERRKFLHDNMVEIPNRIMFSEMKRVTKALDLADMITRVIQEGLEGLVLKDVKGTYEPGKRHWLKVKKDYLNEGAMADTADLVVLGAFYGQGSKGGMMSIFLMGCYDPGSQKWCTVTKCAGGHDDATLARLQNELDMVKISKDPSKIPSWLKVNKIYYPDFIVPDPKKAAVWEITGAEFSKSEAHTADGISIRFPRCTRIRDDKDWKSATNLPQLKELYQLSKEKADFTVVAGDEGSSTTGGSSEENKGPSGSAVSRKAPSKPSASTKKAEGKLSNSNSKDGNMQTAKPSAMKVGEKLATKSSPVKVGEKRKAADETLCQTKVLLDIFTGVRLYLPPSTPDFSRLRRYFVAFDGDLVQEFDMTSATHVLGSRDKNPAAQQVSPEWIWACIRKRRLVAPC

[1] = system: T2, LIG3α WT (nuclear), P49916-3; experiment: single-molecule (SMADNE, optical tweezers); details: 20 mM HEPES pH 7.5, 150 mM NaCl, 1 mM DTT, 5% glycerol, 0.5 mg/ml BSA, 1 mM trolox, 25 °C, nuclear extract diluted 1:10, 10 pN (λ DNA) or 4-5 pN (NCP)
T2 sequence: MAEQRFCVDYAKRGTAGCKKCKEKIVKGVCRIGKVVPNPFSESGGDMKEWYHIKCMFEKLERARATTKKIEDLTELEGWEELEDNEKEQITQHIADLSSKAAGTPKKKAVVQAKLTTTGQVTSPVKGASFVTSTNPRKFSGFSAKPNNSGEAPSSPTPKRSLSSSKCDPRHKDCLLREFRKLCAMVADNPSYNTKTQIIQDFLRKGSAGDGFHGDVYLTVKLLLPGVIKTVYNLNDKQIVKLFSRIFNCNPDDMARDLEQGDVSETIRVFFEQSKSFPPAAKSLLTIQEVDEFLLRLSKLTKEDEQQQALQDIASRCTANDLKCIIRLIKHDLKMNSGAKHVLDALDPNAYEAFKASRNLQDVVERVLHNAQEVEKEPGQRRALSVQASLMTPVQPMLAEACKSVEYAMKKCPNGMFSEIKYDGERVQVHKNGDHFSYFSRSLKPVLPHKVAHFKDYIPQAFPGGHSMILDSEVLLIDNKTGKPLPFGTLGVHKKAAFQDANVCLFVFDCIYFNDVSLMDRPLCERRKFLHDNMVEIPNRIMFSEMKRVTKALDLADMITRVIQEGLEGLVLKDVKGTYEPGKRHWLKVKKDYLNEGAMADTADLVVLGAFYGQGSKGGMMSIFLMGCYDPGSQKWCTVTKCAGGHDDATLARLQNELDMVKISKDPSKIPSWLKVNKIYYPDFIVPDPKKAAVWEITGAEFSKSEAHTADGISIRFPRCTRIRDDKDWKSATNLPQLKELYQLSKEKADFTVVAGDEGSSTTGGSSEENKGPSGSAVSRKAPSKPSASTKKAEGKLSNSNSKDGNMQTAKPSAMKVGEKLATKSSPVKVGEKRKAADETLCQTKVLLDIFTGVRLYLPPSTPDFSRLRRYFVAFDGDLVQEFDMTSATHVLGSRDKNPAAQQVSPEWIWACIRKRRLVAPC

[2] = system: T3, LIG3α ZnF-BRCT internal_change, P49916-3; experiment: single-molecule (SMADNE, optical tweezers); details: 20 mM HEPES pH 7.5, 150 mM NaCl, 1 mM DTT, 5% glycerol, 0.5 mg/ml BSA, 1 mM trolox, 25 °C, nuclear extract diluted 1:10, 10 pN (λ DNA) or 4-5 pN (NCP)
T3 sequence: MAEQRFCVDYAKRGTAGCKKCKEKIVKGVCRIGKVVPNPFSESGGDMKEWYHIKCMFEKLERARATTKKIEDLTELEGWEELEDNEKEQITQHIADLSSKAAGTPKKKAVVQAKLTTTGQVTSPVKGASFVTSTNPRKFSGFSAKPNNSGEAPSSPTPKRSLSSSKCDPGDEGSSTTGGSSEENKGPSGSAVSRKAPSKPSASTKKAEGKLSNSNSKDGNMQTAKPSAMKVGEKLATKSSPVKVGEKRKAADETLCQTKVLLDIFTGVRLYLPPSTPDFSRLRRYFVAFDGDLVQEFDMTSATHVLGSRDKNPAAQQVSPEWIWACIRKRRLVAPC

XRCC1-YFP [3] = molecular target: XRCC1-YFP (UniProt P18887); experiment: single-molecule (SMADNE, optical tweezers); details: 20 mM HEPES pH 7.5, 150 mM NaCl, 1 mM DTT, 5% glycerol, 0.5 mg/ml BSA, 1 mM trolox, 25 °C, nuclear extract diluted 1:10, 10 pN (λ DNA) or 4-5 pN (NCP)
XRCC1-YFP, sequence (P18887 whole entry): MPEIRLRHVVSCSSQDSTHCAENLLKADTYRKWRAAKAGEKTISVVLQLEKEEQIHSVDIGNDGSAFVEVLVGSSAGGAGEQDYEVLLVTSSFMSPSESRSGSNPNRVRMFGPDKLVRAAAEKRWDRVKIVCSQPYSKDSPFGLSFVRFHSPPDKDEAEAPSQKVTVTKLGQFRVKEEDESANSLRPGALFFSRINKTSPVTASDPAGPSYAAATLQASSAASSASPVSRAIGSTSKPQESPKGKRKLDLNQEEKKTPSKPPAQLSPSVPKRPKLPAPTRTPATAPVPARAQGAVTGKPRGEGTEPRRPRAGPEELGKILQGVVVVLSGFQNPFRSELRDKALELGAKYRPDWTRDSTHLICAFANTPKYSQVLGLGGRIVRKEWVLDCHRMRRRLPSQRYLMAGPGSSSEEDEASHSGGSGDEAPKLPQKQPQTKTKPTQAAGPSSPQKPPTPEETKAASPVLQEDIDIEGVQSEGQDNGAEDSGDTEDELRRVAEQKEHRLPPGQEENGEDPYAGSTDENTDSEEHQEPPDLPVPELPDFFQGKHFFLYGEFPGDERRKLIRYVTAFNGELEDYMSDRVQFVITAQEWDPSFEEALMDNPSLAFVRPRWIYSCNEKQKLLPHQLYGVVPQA

XRCC1-YFP [4] = molecular target: XRCC1-YFP (UniProt P18887); experiment: single-molecule (SMADNE, optical tweezers); details: nicks with 3'OH and 5'P; 20 mM HEPES pH 7.5, 150 mM NaCl, 1 mM DTT, 5% glycerol, 0.5 mg/ml BSA, 1 mM trolox, 25 °C; nuclear extract diluted 1:10; 10 pN (λ DNA) or 4-5 pN (NCP)
[5] = molecular target: Cy3-labeled human histone nucleosome core particle reconstituted on the Widom 601 sequence (human); experiment: single-molecule fluorescence imaging on a tethered nucleosome (SMADNE, LUMICKS C-trap); as a3 but 601 NCP with one non-ligatable nick (3'OH and 5'OH) at SHL -2.5, 5 pN tension
[6] = molecular target: Cy3-labeled human histone nucleosome core particle reconstituted on the Widom 601 sequence (human); experiment: single-molecule fluorescence imaging on a tethered nucleosome (SMADNE, LUMICKS C-trap); as a3 but 601 NCP with one non-ligatable nick (3'OH and 5'OH) at SHL -4.5, 5 pN tension
[7] = molecular target: Cy3-labeled human histone nucleosome core particle reconstituted on the Widom 601 sequence (human); experiment: single-molecule fluorescence imaging on a tethered nucleosome (SMADNE, LUMICKS C-trap); as a3 but 601 NCP with one non-ligatable nick (3'OH and 5'OH) at SHL 0, 5 pN tension
[8] = molecular target: Cy3-labeled human histone nucleosome core particle reconstituted on the Widom 601 sequence (human); experiment: single-molecule fluorescence imaging on a tethered nucleosome (SMADNE, LUMICKS C-trap); Cy3-labeled undamaged 601 NCP ligated into 6 kb biotinylated DNA handles and tethered between optically trapped streptavidin beads, 4–5 pN tension; tagged proteins from nuclear extract; lifetimes from …; KD from koff, apparent kon and protein concentration
Halo 635-ΔZnF LIG3α = experiment: single-molecule fluorescence colocalisation on tethered DNA (SMADNE, LUMICKS C-trap); nuclear extract diluted 1:10 in 20mM HEPES pH 7.5, 150mM NaCl, 1mM DTT, 5% glycerol, 0.5mg/ml BSA, 1mM trolox; nicked λ DNA with eight observable ligatable nicks tethered between streptavidin beads, 10 pN tension; kymographs at 10 frames per second; proteins at 0.1–2 nM
[9] = molecular target: N-terminal tagged Halo635 LIG3α (DNA Ligase 3α, nuclear, wild type); experiment: as above
[10] = molecular target: Halo 635-K421A LIG3α (catalytically dead); experiment: as above
[11] = molecular target: N-terminal tagged Halo635 LIG3α (DNA Ligase 3α, nuclear, wild type); experiment: single-molecule fluorescence colocalisation on tethered DNA (SMADNE, LUMICKS C-trap); as a1 but on calf-intestinal alkaline phosphatase (CIP) treated nicked λ DNA with 8 observable non-ligatable (5'OH) nick sites, 10 pN tension
[12] = 5'-phosphates removed (5'OH at nicks)

C-terminal YFP tagged XRCC1 (X-ray cross complementing protein 1), sequence (P18887 whole entry): as above

Substance: nicked λ DNA (Nt.BspQI), ligatable nicks
Kd (LIG3α K421A): 400 pM | Kd (LIG3α ΔZnF, P49916-3): 90 pM | Kd ([1]; nicks with 3'OH and 5'P): 100 pM | Kd ([2]; nicks with 3'OH and 5'P): 3200 pM | Kd (XRCC1-YFP [3]; nicks with 3'OH and 5'P): 1500 pM | Kd (XRCC1-YFP [4]): 4000 pM

Substance: single non-ligatable nick, no NCP
Kd ([1]; non-ligatable nick): 2500 pM

lifetime (Tau) [5]: 12.2 s | lifetime (Tau) [6]: 17.3 s | lifetime (Tau) [7]: 10.2 s
Substance: N-terminal tagged Halo635 LIG3α (DNA Ligase 3α, nuclear, wild type) (enzyme)
Kd [8]: 30 pM | lifetime [8]: 23.6 s | lifetime (Tau) [8]: 23.7 s

Substance: CIP-treated nicked λ DNA, non-ligatable nicks
Kd [1, 12]: 1640 pM | Kd (XRCC1-YFP [3]; [12]): 17000 pM

Substance: CAACTGAGACCATGTACCCAGTTCGAATCGGATGTATATATCTGACACGTGCCTGGAGACTAGGGAGTAATCCCCTTGGCGGTTAAAACGCGGGGGACAGCGCGTACGTGCGTTTAAGCGGTGCTAGAGCTGTCTACGACCAATTGAGCGGCCTCGGCACCGGGATTCTCGATAACTCAGCAATAGTGGGTCTCA / ACCATGAGACCCACTATTGCTGAGTTATCGAGAATCCCGGTGCCGAGGCCGCTCAATTGGTCGTAGACAGCTCTAGCACCGCTTAAACGCACGTACGCGCTGTCCCCCGCGTTTTAACCGCCAAGGGGATTACTCCCTAGTCTCCAGGCACGTGTCAGATATATACATCCGATTCGAACTGGGTACATGGTCTCA [undamaged 601 NCP]
Kd ([1]; 5'-phosphate on both strands): 30 pM | Kd ([2]; 5'-phosphate on both strands): 1100 pM | Kd (XRCC1-YFP [3]; 5'-phosphate on both strands): 600 pM

percent of binding events colocalized (Halo 635-ΔZnF LIG3α): 16.3% | average lifetime of both proteins together on the DNA [9]: 0.7 s | percent of binding events colocalized [9]: 17.1% | percent of binding events colocalized [10]: 7.6% | percent of binding events colocalized [11]: 9.7%
Substance: C-terminal YFP tagged XRCC1 (X-ray cross complementing protein 1) (from UniProt P18887 1-633) (natural protein)
Kd [8]: 600 pM
